What all share (settings): protein: recombinant, tags: N-terminal His6 removed by TEV, chain copies: 2, label: 5' biotin and 3' thiol via ligated handles, 52 bp stem, 8 nt loop
For data set [1], the target named is T1, hTRF2 full-length (Homo sapiens, UniProt Q15554 43-542). Nature of the data set: single-molecule magnetic tweezers hairpin unzipping; Hill n=1.2±1.7; Magnetic tweezers: 150 mM KCl (stretching; full buffer, pH and temperature not in material). EMSA: 25 mM HEPES-Na pH 7.5, 50 mM NaCl, 4 C, 30 min.
Data set [2] addresses TRF2 45-500 (deltaB-TRF2) (Homo sapiens, UniProt Q15554 87-542, del43-86). The data set is described as follows: single-molecule magnetic tweezers hairpin unzipping; Hill n=1.0±0.2; Magnetic tweezers: 150 mM KCl (stretching; full buffer, pH and temperature not in material). EMSA: 25 mM HEPES-Na pH 7.5, 50 mM NaCl, 4 C, 30 min.
A further data set deals with TRFH (TRF2 42-245) (Homo sapiens, UniProt Q15554 84-287). The data set is described as follows: single-molecule magnetic tweezers hairpin unzipping; no unzipping delay up to 5 uM; very dynamic binding not excluded; Magnetic tweezers: 150 mM KCl (stretching; full buffer, pH and temperature not in material). EMSA: 25 mM HEPES-Na pH 7.5, 50 mM NaCl, 4 C, 30 min.
The target in data set [3] is T1, hTRF2 full-length. Nature of the data set: single-molecule magnetic tweezers hairpin unzipping; Hill n=1.0±0.3; Fb 7 pN; Magnetic tweezers: 150 mM KCl (stretching; full buffer, pH and temperature not in material). EMSA: 25 mM HEPES-Na pH 7.5, 50 mM NaCl, 4 C, 30 min.

T1 sequence (Q15554 43-542): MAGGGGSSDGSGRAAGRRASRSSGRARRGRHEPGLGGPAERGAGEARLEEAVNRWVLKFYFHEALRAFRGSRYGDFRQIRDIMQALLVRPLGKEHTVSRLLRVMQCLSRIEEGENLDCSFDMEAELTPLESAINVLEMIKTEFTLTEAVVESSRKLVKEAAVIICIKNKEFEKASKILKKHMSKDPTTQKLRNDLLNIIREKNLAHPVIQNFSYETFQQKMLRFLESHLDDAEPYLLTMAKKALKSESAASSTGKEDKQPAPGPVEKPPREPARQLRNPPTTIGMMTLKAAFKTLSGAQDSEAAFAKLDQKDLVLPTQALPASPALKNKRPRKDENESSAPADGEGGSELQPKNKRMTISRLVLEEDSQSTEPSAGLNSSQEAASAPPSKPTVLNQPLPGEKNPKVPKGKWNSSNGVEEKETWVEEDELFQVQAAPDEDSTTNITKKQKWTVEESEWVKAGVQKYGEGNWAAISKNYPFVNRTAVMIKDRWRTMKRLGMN
Chain of TRFH (TRF2 42-245) (Q15554 84-287): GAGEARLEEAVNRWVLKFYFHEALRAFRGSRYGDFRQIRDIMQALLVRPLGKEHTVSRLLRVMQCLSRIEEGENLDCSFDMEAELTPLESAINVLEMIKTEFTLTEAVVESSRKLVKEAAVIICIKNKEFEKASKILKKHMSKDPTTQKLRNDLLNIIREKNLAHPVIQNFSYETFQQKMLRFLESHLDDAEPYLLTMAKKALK
Chain of TRF2 45-500 (deltaB-TRF2) (Q15554 87-542, stated change not applied): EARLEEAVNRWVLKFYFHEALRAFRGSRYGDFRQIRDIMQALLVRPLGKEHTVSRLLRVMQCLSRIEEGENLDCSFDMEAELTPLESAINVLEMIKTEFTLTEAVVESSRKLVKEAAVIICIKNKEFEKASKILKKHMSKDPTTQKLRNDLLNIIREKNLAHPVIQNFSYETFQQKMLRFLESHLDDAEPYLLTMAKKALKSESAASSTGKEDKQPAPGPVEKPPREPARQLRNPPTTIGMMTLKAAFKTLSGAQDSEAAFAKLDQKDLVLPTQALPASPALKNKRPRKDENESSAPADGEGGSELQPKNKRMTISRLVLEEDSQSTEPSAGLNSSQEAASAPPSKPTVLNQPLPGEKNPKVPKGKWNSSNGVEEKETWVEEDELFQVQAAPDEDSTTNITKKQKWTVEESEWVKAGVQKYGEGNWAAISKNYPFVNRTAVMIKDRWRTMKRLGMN

B1: non-telomeric hairpin (structured_DNA)
DNA: CTTGTGCACAGACTCGTTTGGTTATCGAAGGTAAGGTCTGGCGAACGGTGTATTACCGGTTTGCTACCAGGAAAAAAAACCTGGTAGCAAACCGGTAATACACCGTTCGCCAGACCTTACCTTCGATAACCTTTGCAGCCAGGTCAGTAGCGAC
modifications: 5' phosphate
On to B1, for which the Kd with hTRF2 full-length [1] came to 76.8 ± 31.7 nM.

B2: 5-repeat telomeric hairpin (structured_DNA)
DNA: CTTGTGCACAGACTCGTTTGGTTATCGAAGGTTAGGGTTAGGGTTAGGGTTAGGGTTAGGGTGCTACCAGGAAAAAAAACCTGGTAGCACCCTAACCCTAACCCTAACCCTAACCCTAACCTTCGATAACCTTTGCAGCCAGGTCAGTAGCGAC
modifications: 5' phosphate
In the case of B2, the Kd in data set [2] worked out at 284 ± 70.5 nM; with hTRF2 full-length [3] it was 10.3 ± 2.9 nM. The binding result with TRFH (TRF2 42-245) is listed as “no binding”.

The values above are taken from article PMC10838314, “Exploring TRF2-Dependent DNA Distortion Through Single-DNA Manipulation Studies”.
